Tests used:
[1] = molecular target: the molecule itself; assay: single-molecule pulldown (SiMPull) with photobleaching step counting; SEC-purified mVenus-tagged TMC-1 complex (Flag peptide elution) diluted 1:200, captured on biotinylated anti-GFP nanobody on streptavidin/PEG slides, TIRF; 20 mM Tris pH 8.0, 150 mM NaCl, 0.02% GDN, 3 mM CaCl2; 600 molecules from 3 movies
[2] = molecular target: the molecule itself; assay: cryo-EM structure; native TMC-1 complex in GDN, 20 mM Tris-Cl pH 8.5, 150 mM NaCl, 3 mM CaCl2, on 2 nm carbon-coated grids; one dataset, three classes: expanded, contracted, with ARRD-6

B1: transmembrane channel-like protein 1 (TMC-1) with C-terminal mVenus and 3×Flag tag, from tmc-1::mVenus knock-in worms (natural protein, C. elegans, UniProt D3KZG3 1-1285, looked up)
chain: MQEAARRASLRKEHTPTNEKFGDLSKQDSLGERASSKLTLDDELYDILYAFGETDAFINKGDKQRETDEDGNPLTRQALLERIRQKKEVIGKLRCQAWSMTRKRRTLKLAQKYLEQHESKVSRSHLYMEEMRKRARLMKRSFSNFKTYLIPWESKIKRIESHFGSVVSSYFTFLRWIVFVNIMITLIALVFVVLPETLADSVANEGRFNRTKTRKQIPANERVHADELAVVWHYDGYLRYSPLFYGYYSDDPFLGNKIKYALPLAYFMVTLTIFAYSFFAILRKMAANARMSKLSGSKAEQYIFNWKLFTGWDYTIGNSETASNTVMAVVIKLRESIADIKKDAHGKFRLLQFSLRVFANIIICAMLGFSIYCIIFAVQKSQVQDDGNLFTKNQVPSVVSTITHVFPMIFDLIGKMENYHPRTALRAHLGRVLILYTVNYITLIFALFEKMTALRDRVNSTSTSSSHRTKRQQGGWNPNMQRPPPYASRAEVRQMSDFLAANTRRFQTVSQRTTRSVTTPFTVAPQFGPFNVNNPNAVFHNGTHSTSFESQILGPKALPIFTPPPRKYPGFTPGNVGQQFGGPDFPRNQVYTKSTPLPRVRTKPPWVYTTTHPPLVQNRAMTTTMSKSAKKGNSKNLDDDILLSNETIQMSEAALRRNHDGHNNDICWETIIGQEIVKLVTMDLIFTILSILVIDLFRGLWIKYCSSWWCWDIETTFPEYGEFKVAENVLHIINNQGMIWLGLFFAPLLPAINNIKLIILMYIRGWAVMTCNVPAREIFRASRSSNFYLGILLIWLLLCTLPVGFVIASMSPSRSCGPFARYQHFYTVVTREIEKRVDQTVLSYIRHIASPGVVIPIILFLILIIYFLFSLVRGLREANTDLQAQLVHERTEEKKKIFELAGGKKNKFEKDRDKKRSNDYIPLIEQRRREPWRQYHEMEADHALASDSSEESDINEDEDDERQPLTAYPLRAIETPPETLQVTAFHPSLGSLIENREMEDEESASGDQLPMIHKSVSFQGPSHMQMRQSISTESCSQISRSAIQVATPEEIRALLRPYLEAKYGIPYQHGIKSFPIDVHTPPNNTPSRRSSKYNSFVSLYEHTRDDHKNFVASTIKETDEDPGKSDKKQTSSKDVAPDFMPWPSADEARALREKMKSKTPLMLTKTTVEEKPKGGKSSESEFRPPVPIHRKYNIQTTEEENEEEETDSAPESSKKRFRISVSPTKTIAPASASRAQHKIVSQASSSSSIPHGRQPDPNKKASLVLPPLRAPRVQFDEDDSPRQID
notes: TMC-1, C. elegans, endogenous gene (Wormbase T13G4.3.1); mVenus-3×Flag inserted immediately before the stop codon, PreScission (3C) site between the C terminus of TMC-1 and mVenus; residues M1 to D1285; that sample was afterwards eluted by 3C cleavage and run on SEC) and as imaged in SiMPull (Flag peptide elution, mVenus kept); also called TMC-1-mVenus-3×Flag; mVenus-tagged TMC-1; source: …
Question: With B1 as the protein, how does the “stoichiometry N” value [1] read?
Answer: 2

B2: transmembrane channel-like protein 1 (TMC-1), native, after 3C protease elution (natural protein, C. elegans, UniProt D3KZG3 1-1285, looked up)
chain: MQEAARRASLRKEHTPTNEKFGDLSKQDSLGERASSKLTLDDELYDILYAFGETDAFINKGDKQRETDEDGNPLTRQALLERIRQKKEVIGKLRCQAWSMTRKRRTLKLAQKYLEQHESKVSRSHLYMEEMRKRARLMKRSFSNFKTYLIPWESKIKRIESHFGSVVSSYFTFLRWIVFVNIMITLIALVFVVLPETLADSVANEGRFNRTKTRKQIPANERVHADELAVVWHYDGYLRYSPLFYGYYSDDPFLGNKIKYALPLAYFMVTLTIFAYSFFAILRKMAANARMSKLSGSKAEQYIFNWKLFTGWDYTIGNSETASNTVMAVVIKLRESIADIKKDAHGKFRLLQFSLRVFANIIICAMLGFSIYCIIFAVQKSQVQDDGNLFTKNQVPSVVSTITHVFPMIFDLIGKMENYHPRTALRAHLGRVLILYTVNYITLIFALFEKMTALRDRVNSTSTSSSHRTKRQQGGWNPNMQRPPPYASRAEVRQMSDFLAANTRRFQTVSQRTTRSVTTPFTVAPQFGPFNVNNPNAVFHNGTHSTSFESQILGPKALPIFTPPPRKYPGFTPGNVGQQFGGPDFPRNQVYTKSTPLPRVRTKPPWVYTTTHPPLVQNRAMTTTMSKSAKKGNSKNLDDDILLSNETIQMSEAALRRNHDGHNNDICWETIIGQEIVKLVTMDLIFTILSILVIDLFRGLWIKYCSSWWCWDIETTFPEYGEFKVAENVLHIINNQGMIWLGLFFAPLLPAINNIKLIILMYIRGWAVMTCNVPAREIFRASRSSNFYLGILLIWLLLCTLPVGFVIASMSPSRSCGPFARYQHFYTVVTREIEKRVDQTVLSYIRHIASPGVVIPIILFLILIIYFLFSLVRGLREANTDLQAQLVHERTEEKKKIFELAGGKKNKFEKDRDKKRSNDYIPLIEQRRREPWRQYHEMEADHALASDSSEESDINEDEDDERQPLTAYPLRAIETPPETLQVTAFHPSLGSLIENREMEDEESASGDQLPMIHKSVSFQGPSHMQMRQSISTESCSQISRSAIQVATPEEIRALLRPYLEAKYGIPYQHGIKSFPIDVHTPPNNTPSRRSSKYNSFVSLYEHTRDDHKNFVASTIKETDEDPGKSDKKQTSSKDVAPDFMPWPSADEARALREKMKSKTPLMLTKTTVEEKPKGGKSSESEFRPPVPIHRKYNIQTTEEENEEEETDSAPESSKKRFRISVSPTKTIAPASASRAQHKIVSQASSSSSIPHGRQPDPNKKASLVLPPLRAPRVQFDEDDSPRQID
modifications: N-glycan at N209
notes: TMC-1, C. elegans, endogenous gene (Wormbase T13G4.3.1); residues M1 to D1285; not modelled: M1-P73, S460-N663, L886-D1285; Residues of the 3C site may remain at the C terminus after cleavage; Two copies stand in the complex (two-fold symmetric dimer); also called TMC-1 subunit; TMC-1 protomer; source: endogenous tmc-1 locus, tmc-1::mVenus knock-in worms; purified (anti-Flag M2 resin, 3C protease …)
Question: With B2 as the protein, how does the “stoichiometry N” value [2] read?
Answer: 2

Reference: publication PMC9605866, “Structures of the TMC-1 complex illuminate mechanosensory transduction” (Nature, 2022)
